According to article PMC9352680, “A comprehensive thermodynamic model for RNA binding by the Saccharomyces cerevisiae Pumilio protein PUF4”:

T1: PUF4 RNA-binding domain (Saccharomyces cerevisiae, UniProt P25339 537-888)
T1 sequence: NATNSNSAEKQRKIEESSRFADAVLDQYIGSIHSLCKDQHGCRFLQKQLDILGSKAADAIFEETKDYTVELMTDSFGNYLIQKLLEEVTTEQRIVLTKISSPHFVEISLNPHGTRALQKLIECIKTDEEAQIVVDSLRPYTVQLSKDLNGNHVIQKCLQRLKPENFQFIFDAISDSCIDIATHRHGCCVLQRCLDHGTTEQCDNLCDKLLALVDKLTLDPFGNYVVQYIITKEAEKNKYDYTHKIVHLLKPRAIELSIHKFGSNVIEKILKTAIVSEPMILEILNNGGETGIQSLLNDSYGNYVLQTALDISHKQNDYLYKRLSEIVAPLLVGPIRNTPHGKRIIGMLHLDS


Biological target: T1, PUF4 RNA-binding domain
Assay: Mg; RNA-MaP; 20 mM Na-HEPES pH 7.4, 30 mM KOAc, 0.75 mM MgCl2, 0.1% Tween-20, 5% glycerol, 0.1 mg/mL BSA, 2 mM DTT; 25 C; 0.0125-409.6 nM protein
Settings: tags: N-His6-TEV cleaved; C-SNAP kept, Cy3B-labelled; label: tethered on chip by stalled RNA polymerase

Binder	Kd [nM]
ACAAACCCACACUUAUUAAGACAAAC (ssRNA) [Id_ii_S3_P5E.4_K5.3_C5.2_[T-1C]_H5.3_A5.1_F5.1_T5.2_[T11A]_[A12G]]	> 2300
UCUCUUUGCUUUAUUAUCUCUU (ssRNA) [Ib_S1_P5E.1_K5.1_C5.1_H5.1_[T3C]_[A4T]_A5.1_F5.1_T5.1]	> 2300
ACAAACCUACACUUAUUAGCACAAAC (ssRNA) [Id_ii_S3_P5E.4_K5.3_C5.2_H5.3_A5.1_F5.1_T5.2_[T11G]_[A12C]]	> 2300
ACAAACCUACACUUAUUAUGACAAAC (ssRNA) [Id_ii_S3_P5E.4_K5.3_C5.2_H5.3_A5.1_F5.1_T5.2_[A12G]]	> 2300
UCUCUUUAUUUUAUUAUCUCUU (ssRNA) [Ib_S1_P5E.1_K5.1_C5.1_H5.1_[G2A]_[A4T]_A5.1_F5.1_T5.1]	1550
ACAAACCCACACUUAUUACCACAAAC (ssRNA) [Id_ii_S3_P5E.4_K5.3_C5.2_[T-1C]_H5.3_A5.1_F5.1_T5.2_[T11C]_[A12C]]	> 2300
ACAAACCAACACUUAUUACUACAAAC (ssRNA) [Id_ii_S3_P5E.4_K5.3_C5.2_[T-1A]_H5.3_A5.1_F5.1_T5.2_[T11C]_[A12T]]	> 2300
Id_ii_S4_P3E.2_K3.1_C3.2_[C-2G]_[T-1G]_H3.1_A3.1_F3.1_T3.2_[T9A]_[A10G] (ssRNA) RNA: UUUGACAACUGAUCGUUCUUUCUGGUGUAUAUAAGUUCUUUCUCGAUCAGUUGUCUUU	9.31
Id_ii_S4_P3E.2_K3.1_C3.2_[C-2T]_[T-1C]_H3.1_A3.1_F3.1_T3.2_[T9C] (ssRNA) RNA: UUUGACAACUGAUCGUUCUUUCUUCUGUAUAUACAUUCUUUCUCGAUCAGUUGUCUUU	9.13
Id_ii_S4_P3E.2_K3.1_C3.2_[C-2G]_H3.1_A3.1_F3.1_T3.2_[T9C]_[A10C] (ssRNA) RNA: UUUGACAACUGAUCGUUCUUUCUGUUGUAUAUACCUUCUUUCUCGAUCAGUUGUCUUU	21.8
Id_ii_S4_P3E.2_K3.1_C3.2_[C-2T]_[T-1C]_H3.1_A3.1_F3.1_T3.2_[T9C]_[A10T] (ssRNA) RNA: UUUGACAACUGAUCGUUCUUUCUUCUGUAUAUACUUUCUUUCUCGAUCAGUUGUCUUU	2.78
Id_ii_S4_P3E.2_K3.1_C3.2_[C-2G]_[T-1C]_H3.1_A3.1_F3.1_T3.2_[T9C] (ssRNA) RNA: UUUGACAACUGAUCGUUCUUUCUGCUGUAUAUACAUUCUUUCUCGAUCAGUUGUCUUU	46.9
Id_ii_S4_P3E.2_K3.1_C3.2_[C-2T]_[T-1A]_H3.1_A3.1_F3.1_T3.2_[T9C]_[A10C] (ssRNA) RNA: UUUGACAACUGAUCGUUCUUUCUUAUGUAUAUACCUUCUUUCUCGAUCAGUUGUCUUU	6
Id_ii_S4_P3E.2_K3.1_C3.2_[C-2T]_[T-1C]_H3.1_A3.1_F3.1_T3.2_[A10T] (ssRNA) RNA: UUUGACAACUGAUCGUUCUUUCUUCUGUAUAUAUUUUCUUUCUCGAUCAGUUGUCUUU	1.29
Id_ii_S4_P3E.2_K3.1_C3.2_[C-2T]_[T-1A]_H3.1_A3.1_F3.1_T3.2_[T9G]_[A10C] (ssRNA) RNA: UUUGACAACUGAUCGUUCUUUCUUAUGUAUAUAGCUUCUUUCUCGAUCAGUUGUCUUU	6.05
Id_ii_S4_P3E.2_K3.1_C3.2_[C-2G]_[T-1G]_H3.1_A3.1_F3.1_T3.2_[A10T] (ssRNA) RNA: UUUGACAACUGAUCGUUCUUUCUGGUGUAUAUAUUUUCUUUCUCGAUCAGUUGUCUUU	3.9
Id_ii_S4_P3E.2_K3.1_C3.2_[C-2T]_H3.1_A3.1_F3.1_T3.2_[T9C]_[A10T] (ssRNA) RNA: UUUGACAACUGAUCGUUCUUUCUUUUGUAUAUACUUUCUUUCUCGAUCAGUUGUCUUU	2.81
Id_ii_S4_P3E.2_K3.1_C3.2_[C-2T]_H3.1_A3.1_F3.1_T3.2_[T9G]_[A10T] (ssRNA) RNA: UUUGACAACUGAUCGUUCUUUCUUUUGUAUAUAGUUUCUUUCUCGAUCAGUUGUCUUU	2.14
Id_ii_S4_P3E.2_K3.1_C3.2_[C-2T]_H3.1_A3.1_F3.1_T3.2_[T9C]_[A10C] (ssRNA) RNA: UUUGACAACUGAUCGUUCUUUCUUUUGUAUAUACCUUCUUUCUCGAUCAGUUGUCUUU	2.87
Id_ii_S4_P3E.2_K3.1_C3.2_[C-2G]_H3.1_A3.1_F3.1_T3.2 (ssRNA) RNA: UUUGACAACUGAUCGUUCUUUCUGUUGUAUAUAUAUUCUUUCUCGAUCAGUUGUCUUU	2.31
Id_ii_S4_P3E.2_K3.1_C3.2_[C-2T]_[T-1G]_H3.1_A3.1_F3.1_T3.2_[T9A]_[A10T] (ssRNA) RNA: UUUGACAACUGAUCGUUCUUUCUUGUGUAUAUAAUUUCUUUCUCGAUCAGUUGUCUUU	1.68

Binder	Kd [nM]
Id_ii_S4_P3E.2_K3.1_C3.2_[C-2T]_[T-1C]_H3.1_A3.1_F3.1_T3.2_[T9A]_[A10T] (ssRNA) RNA: UUUGACAACUGAUCGUUCUUUCUUCUGUAUAUAAUUUCUUUCUCGAUCAGUUGUCUUU	1.51
Id_ii_S4_P3E.2_K3.1_C3.2_[C-2T]_[T-1A]_H3.1_A3.1_F3.1_T3.2_[T9A]_[A10C] (ssRNA) RNA: UUUGACAACUGAUCGUUCUUUCUUAUGUAUAUAACUUCUUUCUCGAUCAGUUGUCUUU	15.9
Id_ii_S4_P3E.2_K3.1_C3.2_[C-2G]_[T-1G]_H3.1_A3.1_F3.1_T3.2_[T9A]_[A10T] (ssRNA) RNA: UUUGACAACUGAUCGUUCUUUCUGGUGUAUAUAAUUUCUUUCUCGAUCAGUUGUCUUU	5.5
Id_ii_S4_P3E.2_K3.1_C3.2_[C-2G]_H3.1_A3.1_F3.1_T3.2_[T9A]_[A10T] (ssRNA) RNA: UUUGACAACUGAUCGUUCUUUCUGUUGUAUAUAAUUUCUUUCUCGAUCAGUUGUCUUU	3.41
Id_ii_S4_P3E.2_K3.1_C3.2_[C-2G]_[T-1C]_H3.1_A3.1_F3.1_T3.2_[T9C]_[A10C] (ssRNA) RNA: UUUGACAACUGAUCGUUCUUUCUGCUGUAUAUACCUUCUUUCUCGAUCAGUUGUCUUU	10.5
Id_ii_S4_P3E.2_K3.1_C3.2_[C-2T]_[T-1A]_H3.1_A3.1_F3.1_T3.2_[A10T] (ssRNA) RNA: UUUGACAACUGAUCGUUCUUUCUUAUGUAUAUAUUUUCUUUCUCGAUCAGUUGUCUUU	5.5
Id_ii_S4_P3E.2_K3.1_C3.2_[C-2T]_[T-1A]_H3.1_A3.1_F3.1_T3.2_[T9C]_[A10T] (ssRNA) RNA: UUUGACAACUGAUCGUUCUUUCUUAUGUAUAUACUUUCUUUCUCGAUCAGUUGUCUUU	6.04
Id_ii_S4_P3E.2_K3.1_C3.2_[C-2T]_[T-1C]_H3.1_A3.1_F3.1_T3.2_[T9A]_[A10C] (ssRNA) RNA: UUUGACAACUGAUCGUUCUUUCUUCUGUAUAUAACUUCUUUCUCGAUCAGUUGUCUUU	2.96
Id_ii_S4_P3E.2_K3.1_C3.2_[C-2T]_[T-1A]_H3.1_A3.1_F3.1_T3.2_[T9A] (ssRNA) RNA: UUUGACAACUGAUCGUUCUUUCUUAUGUAUAUAAAUUCUUUCUCGAUCAGUUGUCUUU	20.1
Id_ii_S4_P3E.2_K3.1_C3.2_[C-2T]_[T-1C]_H3.1_A3.1_F3.1_T3.2_[T9G]_[A10T] (ssRNA) RNA: UUUGACAACUGAUCGUUCUUUCUUCUGUAUAUAGUUUCUUUCUCGAUCAGUUGUCUUU	3.63
ACAAACCUACACUUAUUAUUACAAAC (ssRNA) [Id_ii_S3_P5E.4_K5.3_C5.2_H5.3_A5.1_F5.1_T5.2_[A12T]]	> 2300
ACAAACCUACACUUAUUAAAACAAAC (ssRNA) [Id_ii_S3_P5E.4_K5.3_C5.2_H5.3_A5.1_F5.1_T5.2_[T11A]]	> 2300
ACAAACCCACACUUAUUAUGACAAAC (ssRNA) [Id_ii_S3_P5E.4_K5.3_C5.2_[T-1C]_H5.3_A5.1_F5.1_T5.2_[A12G]]	> 2300
UCUCUUUGUAUGAUUAUCUCUU (ssRNA) [Ia_S1_P5E.1_K5.1_C5.1_H5.1_A5.1_[T6G]_F5.1_T5.1]	23
UCUCUUUGCCUUAUUAUCUCUU (ssRNA) [Ib_S1_P5E.1_K5.1_C5.1_H5.1_[T3C]_[A4C]_A5.1_F5.1_T5.1]	> 2300
ACAAACCCACACUUAUUAUCACAAAC (ssRNA) [Id_ii_S3_P5E.4_K5.3_C5.2_[T-1C]_H5.3_A5.1_F5.1_T5.2_[A12C]]	> 2300
ACAAACCUACACUUAUUAUCACAAAC (ssRNA) [Id_ii_S3_P5E.4_K5.3_C5.2_H5.3_A5.1_F5.1_T5.2_[A12C]]	> 2300
ACAAACCUACACUUAUUACUACAAAC (ssRNA) [Id_ii_S3_P5E.4_K5.3_C5.2_H5.3_A5.1_F5.1_T5.2_[T11C]_[A12T]]	> 2300
ACAAACCCACACUUAUUAUAACAAAC (ssRNA) [Id_ii_S3_P5E.4_K5.3_C5.2_[T-1C]_H5.3_A5.1_F5.1_T5.2]	> 2300
ACAAACCUACACUUAUUAACACAAAC (ssRNA) [Id_ii_S3_P5E.4_K5.3_C5.2_H5.3_A5.1_F5.1_T5.2_[T11A]_[A12C]]	> 2300
